Target: T1, NY-ESO antigen (NY-ESO-1) peptide on HLA-A*02:01 (human)
T1 peptide: SLLMWITQC
Assay: multimer staining

B1: anti-NY-ESO TCR (TCR, V domains shown)
Valpha: KQEVTQIPAALSVPEGENLVLNCSFTDSAIYNLQWFRQDPGKGLTSLLLIQSSQREQTSGRLNASLDKSSGRSTLYIAASQPGDSATYLCAGDNNAGNMLTFGGGTRLMVKP
Vbeta: DAMVIQNPRYQVTQFGKPVTLSCSQTLNHNVMYWYQQKSSQAPKLLFHYYDKDFNNEADTPDNFQSRRPNTSFCFLDIRSPGLGDAAMYLCATSVTDGTALTGELFFGEGSRLTVL
binding result: recognises

Reference: patent publication US20230143031A1 (published 2023)
